The results in this text go back to patent US11028172 (LEPU BIOPHARMA, dated 2021).

For experiment [1], the target named is T1, human TIGIT-His protein (human, UniProt Q495A1 22-141).
T1 construct: Recombinant protein; also called human TIGIT-his tag; hTIGIT-His
T1 sequence (looked up): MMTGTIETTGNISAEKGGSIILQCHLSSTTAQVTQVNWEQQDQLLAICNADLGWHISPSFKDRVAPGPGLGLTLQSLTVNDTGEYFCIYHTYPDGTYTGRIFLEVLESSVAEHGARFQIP
Briefly: ELISA, plate coated with human TIGIT-His, anti-human IgG-HRP, OD 450nm; unit taken from the axis Log[Conc.]/ng/ml. The procedure: To evaluate the antigen binding activity, the humanized antibodies were subjected to ELISA test. Briefly, microtiter plates were coated with human TIGIT-his protein at 0.5 µg/ml in PBS, 100 µl/well at 4° C. overnight, then blocked with 150 µl/well of 1% BSA. Three-fold dilutions of humanized antibodies starting from 3 µg/ml were added to each well and incubated for 1 hour at 37° C. The plates were washed with PBS/Tween and then incubated with Goat-anti-human IgG antibody conjugated with Horse Radish Peroxidase (HRP) for 30 mins at 37° C. After washing, the plates were developed with TMB substrate and analyzed by spectrophotometer at OD 450 nm.

The target of experiment [2] is T1, human TIGIT-His protein. Briefly: SPR (Biacore) affinity ranking, human TIGIT-His.

B1: 76D12B10-Hu08 (antibody, V domains shown)
VH: EVQLQESGPGLVKPSETLSLTCAVSGYSISSGYDWHWIRQPPGKGLEWMGFIRDSGSTVYNPSLKGRITISHDTSKNQFSLKLSSVTAADTAVYYCARGLFWYFDVWGQGTTVTVSS
VL: DIQMTQSPSSLSASVGDRVTITCRTSENIFSYLAWYQQKPGKVPKLLIHNTKTLAEGVPSRFSGSGSGTDFTLTISSLQPEDVATYYCQHHYGNPLTFGQGTKLEIK
notes: Humanized, VH.V3 + VK.V1
As to B1, the EC50 in the experiment with human TIGIT-His protein [1] is 9.54 ng/mL. In the experiment with human TIGIT-His protein [2], this molecule had a Kd of 0.0192 nM, a koff of 9.73e-05 s⁻¹ and a kon of 5.06e+06 M⁻¹ s⁻¹.

B2: 76D12B10-Hu04 (antibody, V domains shown)
VH: EVQLQESGPGLVKPSETLSLTCAASGYSITSGYDWHWIRQPPGKGLEWMGFIRDSGSTVYNPSLKGRITISHDTSKNQFSLKLSSVTAADTAVYYCARGLFWYFDVWGQGTTVTVSS
VL: DIQMTQSPSSLSASVGDRVTITCRTSENIFSYLAWYQQKPGKVPKLLIYNTKTLAEGVPSRFSGSGSGTDFTLTISSLQPEDVATYYCQHHYGNPLTFGQGTKLEIK
notes: Humanized, VH.V4 + VK.V0
With B2, the concentration for a half-maximal effect (EC50) in the experiment with human TIGIT-His protein [1] was found to be 9.96 ng/mL. In the experiment with human TIGIT-His protein [2], this molecule had a Kd of 0.0191 nM, a koff of 9.85e-05 s⁻¹ and a kon of 5.15e+06 M⁻¹ s⁻¹.

B3: 76D12B10-Hu09 (antibody, V domains shown)
VH: EVQLQESGPGLVKPSETLSLTCAASGYSITSGYDWHWIRQPPGKGLEWMGFIRDSGSTVYNPSLKGRITISHDTSKNQFSLKLSSVTAADTAVYYCARGLFWYFDVWGQGTTVTVSS
VL: DIQMTQSPSSLSASVGDRVTITCRTSENIFSYLAWYQQKPGKVPKLLIHNTKTLAEGVPSRFSGSGSGTDFTLTISSLQPEDVATYYCQHHYGNPLTFGQGTKLEIK
notes: Humanized, VH.V4 + VK.V1
The molecule B3 returned an EC50 with human TIGIT-His protein [1] of 4.95 ng/mL. In the experiment with human TIGIT-His protein [2], this molecule yielded a Kd of 0.0139 nM, an off-rate (koff) of 0.000125 s⁻¹ and a kon of 9.01e+06 M⁻¹ s⁻¹.

B4: 76D12B10-Hu05 (antibody, V domains shown)
VH: EVQLQESGPGLVKPSETLSLTCAASGYSITSGYDWHWIRQPPGKKLEWMGFIRDSGSTVYNPSLKGRITISHDTSKNQFSLKLSSVTAADTAVYFCARGLFWYFDVWGQGTTVTVSS
VL: DIQMTQSPSSLSASVGDRVTITCRTSENIFSYLAWYQQKPGKVPKLLIYNTKTLAEGVPSRFSGSGSGTDFTLTISSLQPEDVATYYCQHHYGNPLTFGQGTKLEIK
notes: Humanized, VH.V5 + VK.V0
The molecule B4 returned an EC50 in the experiment with human TIGIT-His protein [1] of 10.1 ng/mL. For the same molecule, in the experiment with human TIGIT-His protein [2], the Kd is 0.0165 nM, the off-rate (koff) worked out at 9.75e-05 s⁻¹ and the kon amounted to 5.92e+06 M⁻¹ s⁻¹.

B5: 76D12B10-Hu07 (antibody, V domains shown)
VH: EVQLQESGPGLVKPSETLSLTCAVSGYSISSGYDWHWIRQPPGKGLEWIGFIRDSGSTVYNPSLKGRITISHDTSKNQFSLKLSSVTAADTAVYYCARGLFWYFDVWGQGTTVTVSS
VL: DIQMTQSPSSLSASVGDRVTITCRTSENIFSYLAWYQQKPGKVPKLLIHNTKTLAEGVPSRFSGSGSGTDFTLTISSLQPEDVATYYCQHHYGNPLTFGQGTKLEIK
notes: Humanized, VH.V2 + VK.V1
As to B5, in the experiment with human TIGIT-His protein [1], the concentration giving a half-maximal response (EC50) worked out at 10.7 ng/mL. For the same molecule, in the experiment with human TIGIT-His protein [2], the Kd was 0.0186 nM, the koff was found to be 8.93e-05 s⁻¹ and the kon was 4.8e+06 M⁻¹ s⁻¹.

B6: 76D12B10-Hu03 (antibody, V domains shown)
VH: EVQLQESGPGLVKPSETLSLTCAVSGYSISSGYDWHWIRQPPGKGLEWMGFIRDSGSTVYNPSLKGRITISHDTSKNQFSLKLSSVTAADTAVYYCARGLFWYFDVWGQGTTVTVSS
VL: DIQMTQSPSSLSASVGDRVTITCRTSENIFSYLAWYQQKPGKVPKLLIYNTKTLAEGVPSRFSGSGSGTDFTLTISSLQPEDVATYYCQHHYGNPLTFGQGTKLEIK
notes: Humanized, VH.V3 + VK.V0
Molecule B6 had an EC50 with human TIGIT-His protein [1] of 10.6 ng/mL. In the experiment with human TIGIT-His protein [2], the Kd worked out at 0.0143 nM, the off-rate constant (koff) was found to be 0.00015 s⁻¹ and the kon turned out to be 1.05e+07 M⁻¹ s⁻¹.

B7: 76D12B10-Hu01 (antibody, V domains shown)
VH: EVQLQESGPGLVKPSETLSLTCAVSGYSISSGYDWHWIRQPPGKGLEWIGFIRDSGSTVYNPSLKGRVTISHDTSKNQFSLKLSSVTAADTAVYYCARGLFWYFDVWGQGTTVTVSS
VL: DIQMTQSPSSLSASVGDRVTITCRTSENIFSYLAWYQQKPGKVPKLLIYNTKTLAEGVPSRFSGSGSGTDFTLTISSLQPEDVATYYCQHHYGNPLTFGQGTKLEIK
notes: Humanized, VH.V1 + VK.V0
Take B7: in the experiment with human TIGIT-His protein [1], the EC50 came to 9.89 ng/mL. In the experiment with human TIGIT-His protein [2], the Kd amounted to 0.0701 nM, the koff was found to be 0.000104 s⁻¹ and the on-rate constant (kon) was determined as 1.48e+06 M⁻¹ s⁻¹.
